Experimental data from patent publication US20250320281A1.

Experiments:
Test in all cases: cell-based or functional assay
[1] = target: HIV-1 Env of isolate MGRM-G-025 (HIV-1)
[2] = target: HIV-1 Env of isolate 92WR009 (HIV-1)
[3] = target: HIV-1 Env of isolate 92WR020 (HIV-1)
[4] = target: HIV-1 Env of isolate 93WR029 (HIV-1)
[5] = target: HIV-1 Env of isolate APV-17 (HIV-1)
[6] = target: HIV-1 Env of isolate APV-6 (HIV-1)
[7] = target: HIV-1 Env of isolate CAAN.A2 (subtype B) (HIV-1)
[8] = target: HIV-1 Env of isolate MG RM-D-004 (HIV-1)
[9] = target: HIV-1 Env of isolate MG RM-D-012 (HIV-1)
[10] = target: HIV-1 Env of isolate MGRM-A-012 (subtype A) (HIV-1)
[11] = target: HIV-1 Env of isolate MGRM-C-002 (subtype C) (HIV-1)
[12] = target: HIV-1 Env of isolate MGRM-Chronic-B-017 (subtype B) (HIV-1)
[13] = target: HIV-1 Env of isolate NL43 (subtype B) (HIV-1)
[14] = target: HIV-1 Env of isolate PVO.4 (subtype B) (HIV-1)
[15] = target: HIV-1 Env of isolate THR0.18 (subtype B) (HIV-1)
[16] = target: HIV-1 Env of isolate TRJ04551.58 (subtype B) (HIV-1)
[17] = target: HIV-1 Env of isolate TRO.11 (subtype B) (HIV-1)
[18] = target: HIV-1 envelope glycoprotein (Env) of isolate MGRM-C-010 (HIV-1)
[19] = target: HIV-1 envelope glycoprotein (Env) of isolate MGRM-C-019 (HIV-1)
[20] = target: HIV-1 envelope glycoprotein (Env) of isolate MGRM-C-024 (HIV-1)
[21] = target: HIV-1 93UG077 Env (pseudovirus, clade A) (HIV-1)
[22] = target: HIV-1 Env of isolate 92UG005 (clade D), on pseudovirus (HIV-1)
[23] = target: HIV-1 Env of isolate APV_6 (subtype B pseudovirus) (HIV-1)
[24] = target: HIV-1 Env of isolate MGRM-AG-002 (HIV-1)
[25] = target: HIV-1 Env of isolate MGRM-AG-005 (clade AG), on pseudovirus (HIV-1)
[26] = target: HIV-1 Env of isolate MGRM-AG-009 (HIV-1)
[27] = target: HIV-1 Env of isolate MGRM-D-011 (pseudovirus) (HIV-1)
[28] = target: HIV-1 Env of isolate MGRM-D-019 (pseudovirus) (HIV-1)
[29] = target: HIV-1 Env of isolate MGRM-D-028 (pseudovirus) (HIV-1)
[30] = target: HIV-1 Env of isolate MGRM-F1-004 (pseudovirus) (HIV-1)
[31] = target: HIV-1 Env of isolate MGRM-F1-012 (pseudovirus) (HIV-1)
[32] = target: HIV-1 Env of isolate PVO.4 (subtype B pseudovirus) (HIV-1)
[33] = target: HIV-1 NL43 Env (pseudovirus, clade B) (HIV-1)
[34] = target: HIV-1 Env of isolate 6535.3 (Acute), clade B, on pseudovirus (HIV-1)
[35] = target: HIV-1 Env of isolate 92UG046 (clade D pseudovirus) (HIV-1)
[36] = target: HIV-1 Env of isolate 93IN905 (HIV-1)
[37] = target: HIV-1 Env of isolate MGRM-Chronic-B-002, clade B, on pseudovirus (HIV-1)
[38] = target: HIV-1 Env of isolate MGRM-D-011 (clade D pseudovirus) (HIV-1)
[39] = target: HIV-1 Env of isolate PVO.4 (Acute), clade B, on pseudovirus (HIV-1)
[40] = target: HIV-1 Env of pseudovirus MGRM-AG-002 (clade CRF_AG) (HIV-1)
[41] = target: HIV-1 Env of pseudovirus MGRM-AG-012 (clade CRF_AG) (HIV-1)
[42] = target: HIV-1 Env of pseudovirus MGRM-Chronic-B-010 (HIV-1)
[43] = target: HIV-1 Env of pseudovirus MGRM-G-001 (clade G) (HIV-1)
[44] = target: HIV-1 Env of pseudovirus MGRM-G-006 (clade G) (HIV-1)

Chain of 4995_E20 (PGT-142) (antibody) (VH): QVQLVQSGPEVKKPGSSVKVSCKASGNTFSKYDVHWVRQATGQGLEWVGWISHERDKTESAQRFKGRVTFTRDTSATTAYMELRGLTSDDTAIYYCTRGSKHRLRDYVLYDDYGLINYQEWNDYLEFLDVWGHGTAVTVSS
Chain of 4995_E20 (PGT-142) (antibody) (VL): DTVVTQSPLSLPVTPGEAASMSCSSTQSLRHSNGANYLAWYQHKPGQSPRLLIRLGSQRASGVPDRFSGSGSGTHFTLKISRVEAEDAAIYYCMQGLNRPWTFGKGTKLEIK
Chain of 4970_K22 (PGT-144) (antibody) (VH): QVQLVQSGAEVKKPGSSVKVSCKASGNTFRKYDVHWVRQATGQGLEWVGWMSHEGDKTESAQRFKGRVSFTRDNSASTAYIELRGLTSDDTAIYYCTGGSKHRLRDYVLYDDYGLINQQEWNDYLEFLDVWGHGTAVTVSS
Chain of 4970_K22 (PGT-144) (antibody) (VL): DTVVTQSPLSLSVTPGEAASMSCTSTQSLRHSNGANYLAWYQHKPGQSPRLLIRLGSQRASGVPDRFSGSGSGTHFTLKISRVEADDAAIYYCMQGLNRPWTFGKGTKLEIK
Chain of 4980_N08 (PGT-143) (antibody) (VH): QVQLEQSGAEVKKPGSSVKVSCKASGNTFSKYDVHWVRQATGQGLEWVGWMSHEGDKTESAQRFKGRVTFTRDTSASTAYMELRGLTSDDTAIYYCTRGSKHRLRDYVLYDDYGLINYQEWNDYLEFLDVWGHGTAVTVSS
Chain of 4980_N08 (PGT-143) (antibody) (VL): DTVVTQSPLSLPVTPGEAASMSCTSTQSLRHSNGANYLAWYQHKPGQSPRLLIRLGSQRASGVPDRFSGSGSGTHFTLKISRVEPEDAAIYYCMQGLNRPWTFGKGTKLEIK

Work on 4980_N08 (PGT-143) (antibody) yielded an IC50 (µg/mL), pseudovirus neutralization [1] greater than 50 µg/mL.
4995_E20 (PGT-142) (antibody) gave an IC50 (µg/mL), pseudovirus neutralization [1] greater than 50 µg/mL.
5114_A19 (PGT-128) (antibody) gave an IC50 [2] of 0.812 µg/mL, an IC50 [3] of 0.005 µg/mL and an IC50 [4] greater than 50 µg/mL. For the same substance, the neutralization IC50 [5] was 0.016 µg/mL, the neutralization IC50 [6] was 0.007 µg/mL and the IC50 neutralization [7] was 1.48 µg/mL. For the same substance, the IC50 (µg/mL), pseudovirus neutralization [8] was 24.9 µg/mL, the IC50 (µg/mL), pseudovirus neutralization [9] was greater than 50 µg/mL and the IC50 (µg/mL), pseudovirus neutralization [10] was 0.025 µg/mL. It also gave an IC50 neutralization [11] of 0.019 µg/mL, an IC50 neutralization [12] greater than 50 µg/mL and an IC50 neutralization [13] greater than 50 µg/mL. The IC50 neutralization [14] was 0.005 µg/mL, the IC50 neutralization [15] was greater than 50 µg/mL and the IC50 neutralization [16] was 0.019 µg/mL. It also gave an IC50 neutralization [17] of 0.018 µg/mL, an IC50 (µg/mL), pseudovirus neutralization [18] greater than 50 µg/mL and an IC50 (µg/mL), pseudovirus neutralization [19] of 0.01 µg/mL. For the same substance, the IC50 (µg/mL), pseudovirus neutralization [20] was greater than 50 µg/mL.
In the case of 4858_P08 (PGT-123) (antibody), the IC50 neutralization [21] is reported as 0.0303 µg/mL, the IC50, pseudovirus neutralization [22] is reported as 2.49 µg/mL and the IC50 (µg/mL), pseudovirus neutralization [23] is reported as 0.023 µg/mL. For the same substance, the IC50 [24] was greater than 50 µg/mL, the IC50, pseudovirus neutralization [25] was 0.104 µg/mL and the IC50 [26] was 0.073 µg/mL. For the same substance, the IC50, pseudovirus neutralization [27] was 0.012 µg/mL, the IC50, pseudovirus neutralization [28] was greater than 50 µg/mL and the IC50, pseudovirus neutralization [29] was 0.132 µg/mL. It also gave an IC50, pseudovirus neutralization [30] of 1.78 µg/mL, an IC50, pseudovirus neutralization [31] of 22.2 µg/mL and an IC50 (µg/mL), pseudovirus neutralization [32] of 0.105 µg/mL. For the same substance, the IC50 neutralization [33] was greater than 10 µg/mL.
With VRC01 (antibody) the IC50 [9] was 0.216 µg/mL and the IC50 (µg/mL), pseudovirus neutralization [1] was 0.292 µg/mL.
PGV04 (antibody) was tested, and the IC50 (µg/mL), pseudovirus neutralization [22] was 0.44 µg/mL and the IC50 (µg/mL), pseudovirus neutralization [1] was 1.61 µg/mL.
For 4877_D15 (PGT-122) (antibody), the IC50 neutralization [21] was 0.191 µg/mL, the IC50, pseudovirus neutralization [22] was greater than 10 µg/mL and the IC50 (µg/mL), pseudovirus neutralization [23] was 0.019 µg/mL. It also gave an IC50 [24] greater than 50 µg/mL, an IC50, pseudovirus neutralization [25] greater than 10 µg/mL and an IC50 [26] of 0.128 µg/mL. For the same substance, the IC50, pseudovirus neutralization [27] was 0.019 µg/mL, the IC50, pseudovirus neutralization [28] was greater than 50 µg/mL and the IC50, pseudovirus neutralization [29] was 3.34 µg/mL. The IC50, pseudovirus neutralization [30] was 1.29 µg/mL, the IC50, pseudovirus neutralization [31] was greater than 50 µg/mL and the IC50 (µg/mL), pseudovirus neutralization [32] was 0.689 µg/mL. It also gave an IC50 neutralization [33] greater than 10 µg/mL.
With 4970_K22 (PGT-144) (antibody) the IC50 (µg/mL), pseudovirus neutralization [1] was greater than 50 µg/mL.
In the case of 1496_C09 (PG9) (TCN-109) (antibody), the IC50 (µg/ml), pseudovirus neutralization [34] is reported as 0.22 µg/mL, the IC50 (µg/ml), pseudovirus neutralization [35] is reported as 0.64 µg/mL and the IC50 [36] is reported as 0.03 µg/mL. It also gave an IC50 (µg/ml), pseudovirus neutralization [37] of 1.41 µg/mL, an IC50 (µg/ml), pseudovirus neutralization [38] of 0.06 µg/mL and an IC50 (µg/ml), pseudovirus neutralization [39] of 4.01 µg/mL. It also gave an IC50 [40] of 0.04 µg/mL, an IC50 [41] of 1.37 µg/mL and an IC50 (µg/ml), pseudovirus neutralization [42] of 0.004 µg/mL. It also gave an IC50 [43] of 0.16 µg/mL, an IC50 [44] of 0.51 µg/mL and an IC50 neutralization [33] of 0.687 µg/mL.
